In paper PMC3075617 (Cell, 2011):
“And” between values parts separate entries of the source, which are not always exact repeats. Equal values may be shown once. Values belong to the molecule of their own block, whether it stands above or below them.

B2: DegP^S210A active-site mutant (enzyme, Escherichia coli, UniProt P0C0V0 27-474, looked up)
chain: AETSSATTAQQMPSLAPMLEKVMPSVVSINVEGSTTVNTPRMPRNFQQFFGDDSPFCQEGSPFQSSPFCQGGQGGNGGGQQQKFMALGSGVIIDADKGYVVTNNHVVDNATVIKVQLSDGRKFDAKMVGKDPRSDIALIQIQNPKNLTAIKMADSDALRVGDYTVAIGNPFGLGETVTSGIVSALGRSGLNAENYENFIQTDAAINRGNAGGALVNLNGELIGINTAILAPDGGNIGIGFAIPSNMVKNLTSQMVEYGQVKRGELGIMGTELNSELAKAMKVDAQRGAFVSQVLPNSSAAKAGIKAGDVITSLNGKPISSFAALRAQVGTMPVGSKLTLGLLRDGKQVNVNLELQQSSQNQVDSSSIFNGIEGAEMSNKGKDQGVVVNNVKTGTPAAQIGLKKGDVIIGANQQAVKNIAELRKVLDSKPSVLALNIQRGDSTIYLLMQ

What was measured:
DegP = DegP (Escherichia coli, UniProt P0C0V0); type: biochemical; settings: reporter 100 μM; no activator; 23 °C, 50 mM sodium phosphate pH 8, 100 mM NaCl
[1] = biological target: T1, DegP^S210A/Y444A (Escherichia coli), P0C0V0; assay: SEC; settings: remark: other sources report otherwise
T1 chain: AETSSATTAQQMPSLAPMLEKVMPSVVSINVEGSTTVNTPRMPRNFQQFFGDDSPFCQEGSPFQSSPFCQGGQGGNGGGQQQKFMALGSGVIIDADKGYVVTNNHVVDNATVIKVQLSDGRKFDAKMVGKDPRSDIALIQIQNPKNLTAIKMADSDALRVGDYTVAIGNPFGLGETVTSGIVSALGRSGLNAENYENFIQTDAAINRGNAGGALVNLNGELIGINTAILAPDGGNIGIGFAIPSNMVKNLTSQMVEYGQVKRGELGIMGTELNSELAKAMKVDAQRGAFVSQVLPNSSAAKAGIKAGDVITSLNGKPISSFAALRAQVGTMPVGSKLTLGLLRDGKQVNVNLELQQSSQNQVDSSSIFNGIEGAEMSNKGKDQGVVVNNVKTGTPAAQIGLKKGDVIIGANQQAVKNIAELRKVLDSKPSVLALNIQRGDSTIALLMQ

[2] = biological target: T1, DegP^S210A/Y444A (Escherichia coli), …; assay: SEC; settings: remark: other sources report otherwise
SEC = biological target: the molecule itself; assay: SEC
AUC = biological target: the molecule itself; assay: AUC
[3] = biological target: B2; assay: crystal structure

Chain of DegP (P0C0V0 27-474): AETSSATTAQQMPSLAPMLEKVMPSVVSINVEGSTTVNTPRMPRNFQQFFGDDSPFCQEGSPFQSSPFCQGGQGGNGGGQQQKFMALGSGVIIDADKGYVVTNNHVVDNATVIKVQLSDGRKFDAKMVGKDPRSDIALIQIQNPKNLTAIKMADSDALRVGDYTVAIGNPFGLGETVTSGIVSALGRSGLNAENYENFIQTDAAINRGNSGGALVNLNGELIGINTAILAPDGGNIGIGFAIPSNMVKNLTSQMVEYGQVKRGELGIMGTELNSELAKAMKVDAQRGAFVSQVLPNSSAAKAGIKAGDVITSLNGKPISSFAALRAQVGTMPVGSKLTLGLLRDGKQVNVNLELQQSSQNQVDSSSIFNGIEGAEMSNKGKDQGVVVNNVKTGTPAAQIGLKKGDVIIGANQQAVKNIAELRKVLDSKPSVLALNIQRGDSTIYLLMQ

Molecule: Abz-KASPVSLGY^NO2D [reporter peptide]
rate of reporter peptide cleavage by DegP alone (DegP): 0.027 min^−1 DegP^−1

stoichiometry N [1]: 6 | stoichiometry N [2]: 6
B1: DegP^S210A/Y444A, P0C0V0 27-474 (enzyme)
chain: AETSSATTAQQMPSLAPMLEKVMPSVVSINVEGSTTVNTPRMPRNFQQFFGDDSPFCQEGSPFQSSPFCQGGQGGNGGGQQQKFMALGSGVIIDADKGYVVTNNHVVDNATVIKVQLSDGRKFDAKMVGKDPRSDIALIQIQNPKNLTAIKMADSDALRVGDYTVAIGNPFGLGETVTSGIVSALGRSGLNAENYENFIQTDAAINRGNAGGALVNLNGELIGINTAILAPDGGNIGIGFAIPSNMVKNLTSQMVEYGQVKRGELGIMGTELNSELAKAMKVDAQRGAFVSQVLPNSSAAKAGIKAGDVITSLNGKPISSFAALRAQVGTMPVGSKLTLGLLRDGKQVNVNLELQQSSQNQVDSSSIFNGIEGAEMSNKGKDQGVVVNNVKTGTPAAQIGLKKGDVIIGANQQAVKNIAELRKVLDSKPSVLALNIQRGDSTIALLMQ

Molecule: B2
stoichiometry N (SEC): 6 | stoichiometry N (AUC): 18 and 24 and 30

binding result [3]: binds
Molecule: DNYRGYSLGNWVSAAKFESNFNTQATNRNTDGSTDYGILQI (peptide, UniProt P00698 36-76, looked up) [18-58 polypeptide (lysozyme residues 18-58 with the cysteines mutated to serines)]
